Assay results from PMC5241339.
Where “and” joins values, the source holds several entries; their conditions need not be identical. Identical values can stand only once.

Assays:
[1] = biological target: CD36 on CHO-CD36 cells (UniProt P16671); experiment: radioligand binding; CHO cell lines incubated with [18F]FB-rS100A12 in PBS++ for 90 min at 37 °C, lysed, gamma counter, % ID per protein; blocking with 15-fold excess of rS100A12 or anti-CD36 antibody FA6-152 added 20 min before
[2] = biological target: receptor for advanced glycation endproducts (RAGE) on CHO-RAGE cells (UniProt Q15109); experiment: as above
[3] = biological target: CD36 on CHO-CD36 cells (UniProt P16671); experiment: cell binding of a fluorescent tracer (fluorescence of cell lysates, plate reader); CHO cell lines in 24-well plates incubated with 10 µM fluorescein-rS100A12 for 90 min at 37 °C, lysed, fluorescence per protein; blocking with anti-CD36 antibody FA6-152 10 µg/mL, 30 min before
[4] = biological target: receptor for advanced glycation endproducts (RAGE) on CHO-RAGE cells (UniProt Q15109); experiment: as above
[5] = biological target: CD36 (His-tagged recombinant human protein, Sino Biological, Life technologies, 70-80 kDa) (human) (UniProt P16671); experiment: SPR; Biacore T100; CD36 immobilized by amine coupling on a C1 chip (1000 RU); S100A12 species as analyte 0.62-50.0 nM, single cycle kinetics, 30 µL/min, 25 °C; HBS-P+ with 350 µM CaCl2; two-state reaction model
Chain of CD36 (His-tagged recombinant human protein, Sino Biological, Life technologies, 70-80 kDa) (human) (P16671 30-439): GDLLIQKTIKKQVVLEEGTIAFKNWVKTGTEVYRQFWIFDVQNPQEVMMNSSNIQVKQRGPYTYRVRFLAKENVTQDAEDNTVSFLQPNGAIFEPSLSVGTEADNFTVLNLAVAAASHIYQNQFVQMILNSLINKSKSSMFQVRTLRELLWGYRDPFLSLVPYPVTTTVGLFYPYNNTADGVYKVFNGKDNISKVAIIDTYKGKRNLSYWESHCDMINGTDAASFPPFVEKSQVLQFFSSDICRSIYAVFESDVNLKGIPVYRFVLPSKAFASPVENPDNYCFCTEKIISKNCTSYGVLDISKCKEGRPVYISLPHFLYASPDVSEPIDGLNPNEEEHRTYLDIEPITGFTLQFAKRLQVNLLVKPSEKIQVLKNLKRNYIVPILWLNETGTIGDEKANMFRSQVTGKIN

Chain of receptor for advanced glycation endproducts (RAGE) on CHO-RAGE cells (Q15109 23-404): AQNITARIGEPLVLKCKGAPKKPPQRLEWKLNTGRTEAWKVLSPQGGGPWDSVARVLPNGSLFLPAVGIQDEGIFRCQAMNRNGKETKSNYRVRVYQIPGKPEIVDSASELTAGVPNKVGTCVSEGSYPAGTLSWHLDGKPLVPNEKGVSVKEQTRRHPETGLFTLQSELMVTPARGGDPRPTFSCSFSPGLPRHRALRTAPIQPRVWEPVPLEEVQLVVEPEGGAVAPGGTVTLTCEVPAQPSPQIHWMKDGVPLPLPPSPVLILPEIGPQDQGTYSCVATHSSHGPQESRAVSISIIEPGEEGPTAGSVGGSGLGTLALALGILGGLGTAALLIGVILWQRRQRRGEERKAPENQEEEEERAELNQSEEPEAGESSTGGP
Chain of 4-[18F]fluorobenzoyl-rS100A12 ([18F]FB-rS100A12) (natural protein) (P80511 2-92): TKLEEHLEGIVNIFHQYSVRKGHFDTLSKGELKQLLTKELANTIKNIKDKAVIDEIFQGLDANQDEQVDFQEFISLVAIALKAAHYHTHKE
Chain of CD36 on CHO-CD36 cells (P16671 whole entry): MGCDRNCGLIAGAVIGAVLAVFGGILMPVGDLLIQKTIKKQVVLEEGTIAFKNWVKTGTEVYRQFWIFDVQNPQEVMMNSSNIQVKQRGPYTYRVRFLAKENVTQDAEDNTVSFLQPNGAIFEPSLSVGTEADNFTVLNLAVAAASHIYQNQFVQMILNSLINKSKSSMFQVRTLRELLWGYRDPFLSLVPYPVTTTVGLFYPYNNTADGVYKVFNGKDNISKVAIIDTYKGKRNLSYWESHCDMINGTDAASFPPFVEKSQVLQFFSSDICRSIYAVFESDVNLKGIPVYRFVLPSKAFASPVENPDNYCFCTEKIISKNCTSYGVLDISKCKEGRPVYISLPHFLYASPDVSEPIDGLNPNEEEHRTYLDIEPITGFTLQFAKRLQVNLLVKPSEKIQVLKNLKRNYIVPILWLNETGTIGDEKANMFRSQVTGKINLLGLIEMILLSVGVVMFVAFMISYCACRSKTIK

Row | cell association higher than in CHO-K1 cells [1] [%] | cell association higher than in CHO-K1 cells [2] [%] | binding higher than in CHO-K1 cells [3] [%] | binding higher than in CHO-K1 cells [4] [%] | Kd [5] | Substance
1 | 20 | 40 | – | – | – | 4-[18F]fluorobenzoyl-rS100A12 ([18F]FB-rS100A12) (natural protein)
2 | – | – | 30 | 50 | 4.79 nM | fluorescein-labeled rS100A12 (natural protein)
3 | – | – | – | – | 0.67 nM and 0.99 nM | recombinant S100A12 (rS100A12) (natural protein)
